The target of this assay is Recombinant chick netrin-1 (chick, UniProt Q90922 26-606). Briefly: retention on a 30 kD cut-off size exclusion. (In gel filtration, larger molecules generally elute earlier.)

Take PRYQHTGAVYLLSASPQ [Integrin α3 peptide]: the binding result is reported as “binds”.

The values are drawn from publication PMC3833899 (Brain research, 2013).
